Laboratory results taken from US11078465B2, “Alcohol dehydrogenase mutant and application thereof in synthesis of diaryl chiral alcohols” (Jiangnan University, priority 2018, dated 2021).

Tests used:
Format in all cases: biochemical
[1] = Asymmetric reduction in 20 mL biocatalytic system, conversion
[2] = Kinetic analysis of alcohol dehydrogenase and mutants (NADPH oxidation, 340 nm, double reciprocal curve); settings: substrate CPMK
Procedure, shortened: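 His-tagged recombinant KpADH (wild type or mutant) purified by nickel affinity, desalted into Tris-HCl pH 7.0. Activity measured at 30° C in 100 mM sodium phosphate pH 7.0 with 1.0 mM NADPH and 1.0 mM CPMK by 340 nm NADPH absorbance decrease; kinetic parameters from double reciprocal plots over varied substrate and coenzyme concentrations.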

[3] = Substrate specificity, specific activity
Procedure, shortened: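 Alcohol dehydrogenase mutants were assayed with 1.0 mM NADPH and 1.0 mM ketone substrate (CPMK or other prochiral carbonyls) in 100 mM sodium phosphate, pH 7.0, at 30° C. NADPH oxidation was followed at 340 nm; one U oxidizes 1 μmol NADPH per min (ε 6220).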

[4] = Stereoselectivity (ee) of CPMK reduction, chiral liquid chromatography; settings: product configuration in brackets
Procedure, shortened: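 ee is calculated from the (S)-CPMA and (R)-CPMA molar concentrations measured by chiral liquid chromatography; conversion also by GC. Samples are ethyl acetate extracts of the reaction, dried and redissolved in ethanol.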

[5] = Stereoselectivity on different substrates; settings: configuration in brackets
Procedure, shortened: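 Alcohol dehydrogenase mutants reduced prochiral ketones, including CPMK, aryl pyridyl and diaryl ketones, acetophenones and keto esters. Reactions were extracted into ethyl acetate and redissolved in ethanol. Conversion and ee were determined by chiral liquid and gas chromatography, with ee calculated from (S)- and (R)-CPMA molar concentrations.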

[6] = Stereoselectivity on different substrates; settings: configuration in brackets; remark: listed apart in the source
Procedure, shortened: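 Reaction mixture extracted with ethyl acetate, dried organic phase redissolved in ethanol, then analysed by chiral liquid chromatography and gas chromatography. Values are transformation rate and ee, with ee from LC molar concentrations of (S)- and (R)-CPMA. Substrates were prochiral ketones reduced by alcohol dehydrogenase mutants.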

B1: E214Y/S237A: tyrosine for glutamate at position 214 and alanine for serine at position 237 of SEQ ID No. 2 (protein)
chain: MSVLISGASGYIAKHIVRVLLEQNYKVIGTVRSQDKADKLLKQYNNPNLSYEIVPEIANLDAFDDIFKKHGKEIKYVIHAASPVNFGAKDLEKDLVIPAINGTKNMFEAIKKYAPDTVERVVMTASYASIMTPHRQNDPTLTLDEETWNPVTEENAYENVFTAYCASKTFAEKEAWKFVKENSDAVKFKLTTIHPSFVFGPQNFDEDVTKKLNYTCEIINGLLHAPFDTKVEKTHFAQFIDVRDVAKTHVLGFQKDELINQRLLLCNGAFSQQDIVNVFNEDFPELKGQFPPEDKDTDLNKGVTGCKIDNEKTKKLLAFEFTPFHKTIHDTVYQILHKEGRV
modifications: Protein translated from synthetic DNA
Conversion rate ([1]; 4-nitroacetophenone 10 mM, 1 h): 32% | Conversion rate ([1]; 4-nitroacetophenone 10 mM, 2 h): 48% | Conversion rate ([1]; 4-nitroacetophenone 10 mM, 3 h): 60% | Conversion rate ([1]; 4-nitroacetophenone 10 mM, 4 h): 85% | Conversion rate ([1]; 4-nitroacetophenone 10 mM, 6 h): 95% | Conversion rate ([1]; 4-nitroacetophenone 10 mM, 8 h): 99.8% | Conversion rate ([1]; 4-nitroacetophenone 10 mM, 12 h): >99.9% | Conversion rate ([1]; 4-nitroacetophenone 10 mM, 24 h): >99.9% | Conversion rate ([1]; 4-nitroacetophenone 20 mM, 1 h): 22% | Conversion rate ([1]; 4-nitroacetophenone 20 mM, 2 h): 35.5% | Conversion rate ([1]; 4-nitroacetophenone 20 mM, 3 h): 55.8% | Conversion rate ([1]; 4-nitroacetophenone 20 mM, 4 h): 69.5% | Conversion rate ([1]; 4-nitroacetophenone 20 mM, 6 h): 90.4% | Conversion rate ([1]; 4-nitroacetophenone 20 mM, 8 h): 95.6% | Conversion rate ([1]; 4-nitroacetophenone 20 mM, 12 h): 99.2% | Conversion rate ([1]; 4-nitroacetophenone 20 mM, 24 h): 99.5% | Conversion rate ([1]; 4-nitroacetophenone 50 mM, 1 h): 10.5% | Conversion rate ([1]; 4-nitroacetophenone 50 mM, 2 h): 22.5% | Conversion rate ([1]; 4-nitroacetophenone 50 mM, 3 h): 35.9% | Conversion rate ([1]; 4-nitroacetophenone 50 mM, 4 h): 49.5% | Conversion rate ([1]; 4-nitroacetophenone 50 mM, 6 h): 60.9% | Conversion rate ([1]; 4-nitroacetophenone 50 mM, 8 h): 82.6% | Conversion rate ([1]; 4-nitroacetophenone 50 mM, 12 h): 85.5% | Conversion rate ([1]; 4-nitroacetophenone 50 mM, 24 h): 86.5% | ee in asymmetric synthesis of (R)-CPMA ([1]; 20 mL biocatalytic system, 30° C., pH 7.5): 99.1% | Conversion rate ([1]; CPMK 100 mM, 1 h): 66% | Conversion rate ([1]; CPMK 100 mM, 2 h): 80% | Conversion rate ([1]; CPMK 100 mM, 3 h): 89.5% | Conversion rate ([1]; CPMK 100 mM, 4 h): 94% | Conversion rate ([1]; CPMK 100 mM, 6 h): 96.6% | Conversion rate ([1]; CPMK 100 mM, 8 h): 99.5% | Conversion rate ([1]; CPMK 100 mM, 12 h): >99.9% | Conversion rate ([1]; CPMK 100 mM, 24 h): >99.9% | Conversion rate ([1]; CPMK 200 mM, 1 h): 45.5% | Conversion rate ([1]; CPMK 200 mM, 2 h): 65.5% | Conversion rate ([1]; CPMK 200 mM, 3 h): 75.9% | Conversion rate ([1]; CPMK 200 mM, 4 h): 88.8% | Conversion rate ([1]; CPMK 200 mM, 6 h): 95.6% | Conversion rate ([1]; CPMK 200 mM, 8 h): 99.1% | Conversion rate ([1]; CPMK 200 mM, 12 h): 99.7% | Conversion rate ([1]; CPMK 200 mM, 24 h): >99.9% | Conversion rate ([1]; CPMK 500 mM, 1 h): 25.5% | Conversion rate ([1]; CPMK 500 mM, 2 h): 33.5% | Conversion rate ([1]; CPMK 500 mM, 3 h): 45.8% | Conversion rate ([1]; CPMK 500 mM, 4 h): 59.9% | Conversion rate ([1]; CPMK 500 mM, 6 h): 77.9% | Conversion rate ([1]; CPMK 500 mM, 8 h): 90.2% | Conversion rate ([1]; CPMK 500 mM, 12 h): 95.7% | Conversion rate ([1]; CPMK 500 mM, 24 h): 99.5% | substrate concentration that could be afforded ([1]; p-nitrobenzophenone): 20 mM | Kcat [2]: 15.80 ± 0.25 s⁻¹ | Km [2]: 620 ± 20 µM | Vmax [2]: 23.70 ± 0.37 µM/min/mg | specific activity ([3]; substrate [drawing 1]): 0.26 U/mg | specific activity ([3]; substrate [drawing 2]): 0.25 U/mg | specific activity ([3]; substrate [drawing 3]): 2.25 U/mg | specific activity ([3]; substrate [drawing 4]): 4.06 U/mg | specific activity ([3]; substrate [drawing 5]): 14.48 U/mg | specific activity ([3]; substrate [drawing 6], 4-chlorophenacyl chloride): 25.70 U/mg | specific activity ([3]; substrate [drawing 7]): 22.02 U/mg | specific activity ([3]; substrate [drawing 8]): 22.61 U/mg | specific activity ([3]; substrate [drawing 9], ethyl 4-chloro-3-oxobutanoate): 7.74 U/mg | e.e. [4]: 99.1 (R) | Stereoselectivity (ee) ([5]; substrate [drawing 10], acetophenone): 32.1 (R) | Stereoselectivity (ee) ([5]; substrate [drawing 11], 4-chloroacetophenone): 97.9 (R) | Stereoselectivity (ee) ([5]; substrate [drawing 12], 4-chlorobenzoyl chloride): 61.6 (R) | Stereoselectivity (ee) ([5]; substrate [drawing 16], (4-bromophenyl)-(phenyl)-methanone): 98.5 (S) | Stereoselectivity (ee) ([5]; substrate [drawing 17], p-nitrobenzophenone): 99.2 (S) | Stereoselectivity (ee) ([6]; substrate [drawing 13]): 18.2 (R) | Stereoselectivity (ee) ([6]; substrate [drawing 14], likely CPMK (values partly match Table 4)): 99.1 (R) | Stereoselectivity (ee) ([6]; substrate [drawing 15]): 89.3 (S) | Stereoselectivity (ee) ([6]; substrate [drawing 18]): 79.3 (S)
